Blank lines part the entries; values can stand above or below the binder they belong to. Starred links: 1 amine or outer side, 2 acyl side, 3 side chain; linkers in the order of their positions; H or OH if unused. Positions of bridges follow the written chain, without caps; N, C: chain ends. Non-standard residues stand in square brackets, D forms with d. Primed or numbered codes have the meaning given here. B5(10) = 2-amino-2-(pent-4-en-1-yl)hept-6-enoic acid, bis(4-pentenyl)glycine, stitching residue bearing both staples, C=CCCCC(CCCC=C)(N[*:1])C(=O)[*:2]; PyrS2″ = (S)-3-amino-1-((pent-4-en-1-yloxy)carbonyl)pyrrolidine-3-carboxylic acid (stapling residue), C=CCCCOC(=O)N1CC[C@@](N[*:1])(C(=O)[*:2])C1; B5(4) = 2,2-bis(4-pentenyl)glycine = 2-amino-2-(pent-4-en-1-yl)hept-6-enoic acid (stitching residue), C=CCCCC(CCCC=C)(N[*:1])C(=O)[*:2]; B5(5) = 2,2-bis(4-pentenyl)glycine, 2-amino-2-(pent-4-en-1-yl)hept-6-enoic acid (stitching residue), C=CCCCC(CCCC=C)(N[*:1])C(=O)[*:2]; PyrS2 = (S)-3-amino-1-((pent-4-en-1-yloxy)carbonyl)pyrrolidine-3-carboxylic acid, C=CCCCOC(=O)N1CC[C@@](N[*:1])(C(=O)[*:2])C1; B5(28) = 2,2-bis(4-pentenyl)glycine, C=CCCCC(CCCC=C)(N[*:1])C(=O)[*:2]; Phe(4-CF3) = N[C@@H](Cc1ccc(C(F)(F)F)cc1)C(=O)O; Phe(3-COOH) = N[C@@H](Cc1cccc(C(=O)O)c1)C(=O)O; 2F3MeF = Cc1cccc(C[C@H](N[*:1])C(=O)[*:2])c1F; Phe(2-CF3) = N[C@@H](Cc1ccccc1C(F)(F)F)C(=O)O; Bta = N[C@@H](Cc1csc2ccccc12)C(=O)O; αAllylPro = C=CC[C@@]1(C(=O)O)CCCN1; tBuAla = CC(C)(C)C[C@H](N)C(=O)O; 3Thi = N[C@@H](Cc1ccsc1)C(=O)O; Aad = N[C@@H](CCCC(=O)O)C(=O)O; S8 = C=CCCCCCC[C@](C)(N)C(=O)O; Aib = CC(C)(N)C(=O)O
Assays:
[1] = target: T1, full-length beta-Catenin (Uniprot ID P35222) (Homo sapiens (Human), UniProt P35222 2-781); assay: AlphaScreen competition: full-length beta-catenin + biotin-TCF4(10-53) probe, peptide titrated
T1 construct: The AlphaScreen assay used a Histidine (Nickel Chelate) detection kit, so a His tag is likely, but no tag is described; also called B-Catenin; bCat
T1 sequence: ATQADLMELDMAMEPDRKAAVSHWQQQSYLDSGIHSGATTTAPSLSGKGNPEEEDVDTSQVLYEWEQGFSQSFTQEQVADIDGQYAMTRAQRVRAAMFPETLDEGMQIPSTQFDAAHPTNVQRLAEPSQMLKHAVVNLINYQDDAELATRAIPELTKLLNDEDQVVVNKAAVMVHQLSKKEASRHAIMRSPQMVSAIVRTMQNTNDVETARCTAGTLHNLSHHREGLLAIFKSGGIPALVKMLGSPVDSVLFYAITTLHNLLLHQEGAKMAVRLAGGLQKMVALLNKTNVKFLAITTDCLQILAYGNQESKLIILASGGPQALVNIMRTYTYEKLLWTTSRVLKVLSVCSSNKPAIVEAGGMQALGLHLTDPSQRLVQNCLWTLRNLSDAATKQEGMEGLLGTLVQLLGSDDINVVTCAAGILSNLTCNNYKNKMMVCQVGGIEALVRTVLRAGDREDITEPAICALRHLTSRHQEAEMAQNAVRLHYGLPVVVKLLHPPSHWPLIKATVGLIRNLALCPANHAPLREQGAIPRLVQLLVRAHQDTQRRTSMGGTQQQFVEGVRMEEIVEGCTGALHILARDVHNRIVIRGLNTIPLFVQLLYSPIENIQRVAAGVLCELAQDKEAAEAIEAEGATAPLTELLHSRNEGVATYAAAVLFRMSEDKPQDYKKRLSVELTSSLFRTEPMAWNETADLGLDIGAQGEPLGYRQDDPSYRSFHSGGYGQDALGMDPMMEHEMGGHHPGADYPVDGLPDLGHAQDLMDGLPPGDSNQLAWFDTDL
Method: (§1) Equal volume of the titrated peptide was added to the plate and incubated for 15 minutes at 20° C. Then 4 uL of donor and 4 uL acceptor beads at 10 ug/mL were added to the plate, for a 16 uL reaction pool and protected from light for 60 minutes at 20° C. prior to read. Reads were performed on a CLARIOstar plate reader (BMG Labtech) in duplicate, and data were fitted to a 1:1 binding model with hill slope using an in-house script. All provided concentrations are final concentrations.

[2] = target: T1, full-length beta-Catenin (Uniprot ID …); assay: fluorescence polarization competition: full-length beta-catenin + 5FAM-TCF4(10-53) probe, peptide titrated
Method: (§2) The plate was incubated protected from light for 60 minutes at 20° C. prior to read. Reads were performed on a CLARIOstar plate reader (BMG Labtech) in duplicate, and data were fitted to a 1:1 binding model with hill slope using an in-house script. All provided concentrations are final concentrations.

[3] = target: T2, beta-catenin in DLD1 TCF/LEF luciferase reporter cells (UniProt P35222 1-781); assay: cell-based or functional assay
T2 sequence (looked up): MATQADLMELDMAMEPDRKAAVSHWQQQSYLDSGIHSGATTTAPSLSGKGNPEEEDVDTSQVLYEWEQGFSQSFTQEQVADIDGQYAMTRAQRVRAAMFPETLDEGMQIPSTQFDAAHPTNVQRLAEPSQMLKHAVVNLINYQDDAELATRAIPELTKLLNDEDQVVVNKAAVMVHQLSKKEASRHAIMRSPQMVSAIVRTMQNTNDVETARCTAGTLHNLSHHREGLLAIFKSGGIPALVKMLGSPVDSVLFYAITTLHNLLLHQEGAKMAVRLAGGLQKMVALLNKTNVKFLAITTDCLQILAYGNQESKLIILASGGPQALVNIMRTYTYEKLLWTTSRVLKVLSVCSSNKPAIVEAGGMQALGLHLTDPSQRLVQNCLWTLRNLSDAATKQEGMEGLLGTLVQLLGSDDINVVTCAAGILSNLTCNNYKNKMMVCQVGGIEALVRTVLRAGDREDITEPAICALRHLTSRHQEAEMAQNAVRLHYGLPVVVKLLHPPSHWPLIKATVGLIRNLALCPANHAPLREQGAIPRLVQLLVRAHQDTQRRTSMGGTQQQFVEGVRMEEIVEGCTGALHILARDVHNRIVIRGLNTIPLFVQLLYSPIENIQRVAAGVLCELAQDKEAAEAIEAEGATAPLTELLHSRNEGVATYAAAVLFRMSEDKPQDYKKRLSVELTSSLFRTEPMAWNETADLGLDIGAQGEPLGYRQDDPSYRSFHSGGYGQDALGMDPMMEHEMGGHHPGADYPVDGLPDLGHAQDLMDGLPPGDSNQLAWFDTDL

[4] = target: T3, full-length beta-Catenin (Uniprot ID P35222) (Homo sapiens (Human), UniProt P35222 2-781); assay: Alphascreen competition; biotin-TCF4(10-53) probe with full-length beta-catenin
T3 construct: also called B-Catenin; bCat
T3 sequence: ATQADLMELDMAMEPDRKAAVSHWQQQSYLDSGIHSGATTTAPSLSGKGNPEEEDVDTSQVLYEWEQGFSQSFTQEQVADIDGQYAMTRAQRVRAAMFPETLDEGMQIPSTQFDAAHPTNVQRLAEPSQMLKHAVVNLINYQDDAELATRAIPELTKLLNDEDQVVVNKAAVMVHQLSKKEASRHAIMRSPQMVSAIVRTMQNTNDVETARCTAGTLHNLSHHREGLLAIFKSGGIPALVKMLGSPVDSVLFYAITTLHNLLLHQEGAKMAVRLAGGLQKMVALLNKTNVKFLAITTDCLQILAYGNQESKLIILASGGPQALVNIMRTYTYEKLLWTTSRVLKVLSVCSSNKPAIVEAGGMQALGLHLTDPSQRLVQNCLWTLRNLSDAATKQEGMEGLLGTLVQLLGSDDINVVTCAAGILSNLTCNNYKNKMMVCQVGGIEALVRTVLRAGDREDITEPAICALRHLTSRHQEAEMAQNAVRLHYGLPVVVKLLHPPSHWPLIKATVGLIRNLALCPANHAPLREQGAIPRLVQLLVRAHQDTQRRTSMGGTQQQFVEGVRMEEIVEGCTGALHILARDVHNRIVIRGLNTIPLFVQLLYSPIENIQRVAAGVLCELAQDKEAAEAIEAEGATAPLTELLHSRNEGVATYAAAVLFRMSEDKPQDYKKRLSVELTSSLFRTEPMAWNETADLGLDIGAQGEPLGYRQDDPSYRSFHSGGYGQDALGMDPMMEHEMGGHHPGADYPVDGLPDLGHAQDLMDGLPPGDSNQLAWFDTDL
Method: as §1

[5] = target: T3, full-length beta-Catenin (Uniprot ID …); assay: fluorescence polarization competition; 5FAM-TCF4(10-53) probe with full-length beta-catenin
Method: as §2

B1: I-255 (peptide)
peptide: Ac-[αAllylPro]DA[B5(4)]DDAAFV[S8][Phe(4-CF3)]WQ-NH2
modifications: staple 1-4, 4-11
notes: Stapled peptide composition; also called Ac-PL3-Asp-Ala-B5-Asp-Asp-Ala-Ala-Phe-Val-S8-4F3MeF-Trp-Gln-NH2
EC50 [1]: 1.96 µM | EC50 [2]: 5 µM

B3: I-2399 (peptide)
peptide: Ac-[αAllylPro]D[tBuAla][B5(5)]D[Phe(3-COOH)]AAFL[PyrS2][Phe(2-CF3)][Bta]QAA-NH2
modifications: staple 1-4, 4-11
DLD1 4% Abs IC50 [3]: 2.2 µM

B5: I-129 (peptide)
peptide: Ac-[αAllylPro]DA[B5(10)]D[Aad]AAFV[S8]FWQ-NH2
modifications: staple 1-4, 4-11
notes: Stitched (two-staple) peptide composition
EC50 [4]: 0.083 µM | EC50 [5]: 1.98 µM

B6: I-134 (peptide)
peptide: Ac-[αAllylPro]DA[B5(28)]DEAAFV[S8]FW[Aib]-NH2
modifications: staple 1-4, 4-11
notes: as for B5
EC50 [5]: 2.7 µM

More lines, now with the values ahead:

EC50 [1]: 0.09 µM | EC50 [2]: 1.96 µM
B2: I-218 (peptide)
peptide: Ac-[αAllylPro]DA[B5(4)]DEAAXV[S8]FWQ-NH2
modifications: staple 1-4, 4-11; not fully specified (residue 9); printed as Ac-PL3-Asp-Ala-B5-Asp-Glu-Ala-Ala-MeTyr-Val-S8-Phe-Trp-Gln-NH2
notes: Stapled peptide composition; also called Ac-PL3-Asp-Ala-B5-Asp-Glu-Ala-Ala-MeTyr-Val-S8-Phe-Trp-Gln-NH2

DLD1 4% Abs IC50 [3]: 1.3 µM
B4: I-2398 (peptide)
peptide: Ac-[αAllylPro]D[tBuAla][B5(5)]D[Phe(3-COOH)]AAFL[PyrS2″][2F3MeF][Bta]QL[dQ]-NH2
modifications: staple 1-4, 4-11

DLD1 4% Abs IC50 [3]: > 20 µM
B7: I-2413 (peptide)
peptide: Ac-[αAllylPro]D[tBuAla][B5(5)]NT[Aib]AFN[PyrS2″][3Thi][Bta]R-NH2
modifications: staple 1-4, 4-11

Source: patent US20240116985A1 (published 2024)
